In article PMC11485096 one finds stoichiometry N data, which are given here for one substance.

The test concerns the target AtoB (Aspergillus ochraceus LZDX-32-15). Nature of the test: crystal structure.

In the case of AtoB (enzyme), the stoichiometry N is 2.

What is called stoichiometry N is a count of units in the complex or per binding partner.
